Here are results for 2 molecules from publication PMC6365968 (Cell, 2018).

The target in data set [1] is T1, human LAG3-Ig (immunoglobulin Fc-tagged LAG3 extracellular domain fusion protein) (human, UniProt P18627 23-450).
T1 sequence (looked up): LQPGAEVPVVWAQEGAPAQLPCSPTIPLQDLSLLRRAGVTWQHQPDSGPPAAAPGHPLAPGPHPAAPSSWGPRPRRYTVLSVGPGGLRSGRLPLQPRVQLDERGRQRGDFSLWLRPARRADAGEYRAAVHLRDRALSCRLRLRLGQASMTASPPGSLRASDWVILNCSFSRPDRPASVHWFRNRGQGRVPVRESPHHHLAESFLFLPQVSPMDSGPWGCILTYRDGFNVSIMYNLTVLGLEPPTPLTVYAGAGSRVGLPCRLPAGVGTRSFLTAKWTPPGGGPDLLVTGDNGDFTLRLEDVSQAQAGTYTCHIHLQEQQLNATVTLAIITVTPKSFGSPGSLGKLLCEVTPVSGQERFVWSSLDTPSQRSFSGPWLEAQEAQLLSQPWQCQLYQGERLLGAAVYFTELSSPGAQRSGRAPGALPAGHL
In words: BLI. On the technique in general: BLI is a label-free optical method that tracks binding on a fibre tip over time.

The data set “SEC-MALS” deals with the molecule itself. Put plainly: SEC-MALS. On the technique in general: In gel filtration, larger molecules generally elute earlier.
Data set [2] addresses T2, mouse LAG3-Ig (Fc-tagged mouse LAG3 extracellular domain fusion protein) (mouse, UniProt Q61790 24-442).
T2 sequence (looked up): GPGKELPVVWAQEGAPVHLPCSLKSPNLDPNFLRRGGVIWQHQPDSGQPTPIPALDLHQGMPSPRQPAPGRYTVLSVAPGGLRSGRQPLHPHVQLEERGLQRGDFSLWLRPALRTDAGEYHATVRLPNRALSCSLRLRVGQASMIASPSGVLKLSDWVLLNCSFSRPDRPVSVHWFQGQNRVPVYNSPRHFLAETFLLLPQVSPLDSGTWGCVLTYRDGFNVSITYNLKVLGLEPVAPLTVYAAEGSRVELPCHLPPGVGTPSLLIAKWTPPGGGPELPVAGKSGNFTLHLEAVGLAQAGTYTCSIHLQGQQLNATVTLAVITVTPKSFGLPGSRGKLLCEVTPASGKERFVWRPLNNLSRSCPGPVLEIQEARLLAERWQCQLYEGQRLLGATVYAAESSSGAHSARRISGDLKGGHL
Put plainly: BLI.

B1: FLAG-tagged human FGL1 (ligand, UniProt Q08830 23-312, looked up)
chain: LEDCAQEQMRLRAQVRLLETRVKQQQVKIKQLLQENEVQFLDKGDENTVIDLGSKRQYADCSEIFNDGYKLSGFYKIKPLQSPAEFSVYCDMSDGGGWTVIQRRSDGSENFNRGWKDYENGFGNFVQKHGEYWLGNKNLHFLTTQEDYTLKIDLADFEKNSRYAQYKNFKVGDEKNFYELNIGEYSGTAGDSLAGNFHPEVQWWASHQRMKFSTWDRDHDNYEGNCAEEDQSGWWFNRCHSANLNGVYYSGPYTAKTDNGIVWYTWHGWWYSLKSVVMKIRPNDFIPNVI
Consider B1, for which the binding result in data set [1] is recorded as “binds”.

B2: FLAG-tagged mouse FGL1 (ligand, UniProt Q71KU9 23-314, looked up)
chain: LESESCLREQVRLRAQVHQLETRVKQQQTMIAQLLHEKEVQFLDKGSENSFIDLGGKRQYADCSEIYNDGFKQSGFYKIKPLQSLAEFSVYCDMSDGGGWTVIQRRSDGSENFNRGWNDYENGFGNFVQNNGEYWLGNKNINLLTIQGDYTLKIDLTDFEKNSSFAQYQSFKVGDKKSFYELNIGEYSGTAGDSLSGTFHPEVQWWASHQRMKFSTWDRDNDNYQGNCAEEEQSGWWFNRCHSANLNGVYYRGSYRAETDNGVVWYTWHGWWYSLKSVVMKIRPSDFIPNII
The term stoichiometry N denotes a count of units in the complex or per binding partner. What is called Kd is a measure of binding affinity in units of concentration. A lower Kd goes with tighter binding. Regarding B2, the “stoichiometry N” value in “SEC-MALS” was found to be 2. The molecule further had an equilibrium dissociation constant (Kd) in data set [2] of approximately 1.5 nM.
